Experiment [1] addresses T1, B7-H3 on B7H3-expressing A375 and A375.S2 cells (UniProt Q5ZPR3 29-534, limits assumed).
T1 construct: whole, on cells
T1 sequence (looked up): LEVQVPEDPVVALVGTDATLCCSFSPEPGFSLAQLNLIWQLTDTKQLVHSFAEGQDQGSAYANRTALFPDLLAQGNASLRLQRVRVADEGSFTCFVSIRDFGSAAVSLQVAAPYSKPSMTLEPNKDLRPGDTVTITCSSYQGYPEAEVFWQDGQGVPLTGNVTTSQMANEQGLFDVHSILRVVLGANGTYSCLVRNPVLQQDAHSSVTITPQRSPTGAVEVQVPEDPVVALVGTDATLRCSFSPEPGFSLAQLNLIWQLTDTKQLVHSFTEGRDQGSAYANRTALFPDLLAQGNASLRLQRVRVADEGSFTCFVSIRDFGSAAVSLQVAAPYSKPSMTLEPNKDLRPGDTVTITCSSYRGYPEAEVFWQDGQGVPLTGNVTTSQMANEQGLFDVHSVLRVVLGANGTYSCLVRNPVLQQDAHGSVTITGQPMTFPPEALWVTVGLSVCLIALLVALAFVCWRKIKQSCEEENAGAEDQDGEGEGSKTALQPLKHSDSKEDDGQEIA
The experiment in a line: FACS on B7H3-expressing A375 and A375.S2 cells.

The target in experiment [2] is T1, B7-H3 on B7H3-expressing A375 and …. Kind of experiment: cell-based binding on A375 and A375.S2 cells (FIG. 13).
For experiment [3] the target is unchanged. Kind of experiment: binding to B7H3-expressing A375 cell line (FIG. 18).
Protocol: The binding of these prodrugs against B7H3-expressing A375 cell line were tested.
Experiment [4] has the same target. Kind of experiment: cell-based binding assay (FIG. 15A).

B1: MGA017 (parental naked anti-B7-H3 antibody) (antibody, V domains shown)
VH: EVQLVESGGGLVKPGGSLRLSCAASGFTFSSYGMSWVRQAPGKGLEWVATINSGGSNTYYPDSLKGRFTISRDNAKNSLYLQMNSLRAEDTAVYYCARHDGGAMDYWGQGTTVTVSS
VL: DIQMTQSPSSLSASVGDRVTITCRASESIYSYLAWYQQKPGKAPKLLVYNTKTLPEGVPSRFSGSGSGTDFTLTISSLQPEDFATYYCQHHYGTPPWTFGQGTRLEIK
notes: Anti-B7-H3 antibody from MacroGenics; also called un-masked MGA017; parental naked antibody of Format 12
For the molecule B1, in experiment [1], the binding result was “binds”.

B2: MGA017-mIgG1 (parental antibody of Formats 28-31) (antibody, V domains shown)
VH: B1 VH
VL: B1 VL
notes: mIgG1; also called parental antibody MGA017; naked antibody MGA017
As to B2, the binding result in experiment [2] is on record as “binds”.

B3: Format 30 (KIH CH3Δ6 mask + cleavable linker PLGLAGGGGS on MGA017 variable regions, mIgG1) (antibody)
heavy: GQPREPQVCTLPPSRDELTKNQVSLSCAVKGFYPSDIAVEWESNGQPENNYKTTPPVLDSDGSFFLVSKLTVDKSRWQQGNVFSCSVMHEALHNHYTQKSLPLGLAGGGGSEVQLVESGGGLVKPGGSLRLSCAASGFTFSSYGMSWVRQAPGKGLEWVATINSGGSNTYYPDSLKGRFTISRDNAKNSLYLQMNSLRAEDTAVYYCARHDGGAMDYWGQGTTVTVSSAKTTPPSVYPLAPGSAAQTNSMVTLGCLVKGYFPEPVTVTWNSGSLSSGVHTFPAVLQSDLYTLSSSVTVPSSTWPSETVTCNVAHPASSTKVDKKIVPRDCGCKPCICTVPEVSSVFIFPPKPKDVLTITLTPKVTCVVVDISKDDPEVQFSWFVDDVEVHTAQTQPREEQFNSTFRSVSELPIMHQDWLNGKEFKCRVNSAAFPAPIEKTISKTKGRPKAPQVYTIPPPKEQMAKDKVSLTCMITDFFPEDITVEWQWNGQPAENYKNTQPIMDTDGSYFVYSKLNVQKSNWEAGNTFTCSVLHEGLHNHHTEKSLSHSPGK
light: GQPREPQVYTLPPCRDELTKNQVSLWCLVKGFYPSDIAVEWESNGQPENNYKTTPPVLDSDGSFFLYSKLTVDKSRWQQGNVFSCSVMHEALHNHYTQKSLPLGLAGGGGSDIQMTQSPSSLSASVGDRVTITCRASESIYSYLAWYQQKPGKAPKLLVYNTKTLPEGVPSRFSGSGSGTDFTLTISSLQPEDFATYYCQHHYGTPPWTFGQGTRLEIKRADAAPTVSIFPPSSEQLTSGGASVVCFLNNFYPKDINVKWKIDGSERQNGVLNSWTDQDSKDSTYSMSSTLTLTKDEYERHNSYTCEATHKTSTSPIVKSFNRNEC
notes: Antibody prodrug against B7-H3, uncleaved
Regarding B3, in experiment [2], the binding result was “binds”.

B4: Format 34 (CLκ on VH / CH1 plus EPKSC on VL as mask + GGGS on MGA017 variable regions, hIgG1) (antibody)
heavy: not shown
light: ASTKGPSVFPLAPSSKSTSGGTAALGCLVKDYFPEPVTVSWNSGALTSGVHTFPAVLQSSGLYSLSSVVTVPSSSLGTQTYICNVNHKPSNTKVDKKVEPKSCGGGSDIQMTQSPSSLSASVGDRVTITCRASESIYSYLAWYQQKPGKAPKLLVYNTKTLPEGVPSRFSGSGSGTDFTLTISSLQPEDFATYYCQHHYGTPPWTFGQGTRLEIKRTVAAPSVFIFPPSDEQLKSGTASVVCLLNNFYPREAKVQWKVDNALQSGNSQESVTEQDSKDSTYSLSSTLTLSKADYEKHKVYACEVTHQGLSSPVTKSFNRGEC
notes: Antibody prodrug against B7-H3
On to B4, for which the binding result in experiment [3] is on record as “binds”.

B5: Format 28 (KIH CH3Δ6 mask + cleavable linker IPVSLRSG on MGA017 variable regions, mIgG1) (antibody)
heavy: GQPREPQVCTLPPSRDELTKNQVSLSCAVKGFYPSDIAVEWESNGQPENNYKTTPPVLDSDGSFFLVSKLTVDKSRWQQGNVFSCSVMHEALHNHYTQKSLIPVSLRSGEVQLVESGGGLVKPGGSLRLSCAASGFTFSSYGMSWVRQAPGKGLEWVATINSGGSNTYYPDSLKGRFTISRDNAKNSLYLQMNSLRAEDTAVYYCARHDGGAMDYWGQGTTVTVSSAKTTPPSVYPLAPGSAAQTNSMVTLGCLVKGYFPEPVTVTWNSGSLSSGVHTFPAVLQSDLYTLSSSVTVPSSTWPSETVTCNVAHPASSTKVDKKIVPRDCGCKPCICTVPEVSSVFIFPPKPKDVLTITLTPKVTCVVVDISKDDPEVQFSWFVDDVEVHTAQTQPREEQFNSTFRSVSELPIMHQDWLNGKEFKCRVNSAAFPAPIEKTISKTKGRPKAPQVYTIPPPKEQMAKDKVSLTCMITDFFPEDITVEWQWNGQPAENYKNTQPIMDTDGSYFVYSKLNVQKSNWEAGNTFTCSVLHEGLHNHHTEKSLSHSPGK
light: GQPREPQVYTLPPCRDELTKNQVSLWCLVKGFYPSDIAVEWESNGQPENNYKTTPPVLDSDGSFFLYSKLTVDKSRWQQGNVFSCSVMHEALHNHYTQKSLIPVSLRSGDIQMTQSPSSLSASVGDRVTITCRASESIYSYLAWYQQKPGKAPKLLVYNTKTLPEGVPSRFSGSGSGTDFTLTISSLQPEDFATYYCQHHYGTPPWTFGQGTRLEIKRADAAPTVSIFPPSSEQLTSGGASVVCFLNNFYPKDINVKWKIDGSERQNGVLNSWTDQDSKDSTYSMSSTLTLTKDEYERHNSYTCEATHKTSTSPIVKSFNRNEC
notes: as for B3
On to B5, for which the binding result in experiment [2] was “binds”.

B6: Format 29 (KIH CH3Δ6 mask + cleavable linker PLGLAG on MGA017 variable regions, mIgG1) (antibody)
heavy: GQPREPQVCTLPPSRDELTKNQVSLSCAVKGFYPSDIAVEWESNGQPENNYKTTPPVLDSDGSFFLVSKLTVDKSRWQQGNVFSCSVMHEALHNHYTQKSLPLGLAGEVQLVESGGGLVKPGGSLRLSCAASGFTFSSYGMSWVRQAPGKGLEWVATINSGGSNTYYPDSLKGRFTISRDNAKNSLYLQMNSLRAEDTAVYYCARHDGGAMDYWGQGTTVTVSSAKTTPPSVYPLAPGSAAQTNSMVTLGCLVKGYFPEPVTVTWNSGSLSSGVHTFPAVLQSDLYTLSSSVTVPSSTWPSETVTCNVAHPASSTKVDKKIVPRDCGCKPCICTVPEVSSVFIFPPKPKDVLTITLTPKVTCVVVDISKDDPEVQFSWFVDDVEVHTAQTQPREEQFNSTFRSVSELPIMHQDWLNGKEFKCRVNSAAFPAPIEKTISKTKGRPKAPQVYTIPPPKEQMAKDKVSLTCMITDFFPEDITVEWQWNGQPAENYKNTQPIMDTDGSYFVYSKLNVQKSNWEAGNTFTCSVLHEGLHNHHTEKSLSHSPGK
light: GQPREPQVYTLPPCRDELTKNQVSLWCLVKGFYPSDIAVEWESNGQPENNYKTTPPVLDSDGSFFLYSKLTVDKSRWQQGNVFSCSVMHEALHNHYTQKSLPLGLAGDIQMTQSPSSLSASVGDRVTITCRASESIYSYLAWYQQKPGKAPKLLVYNTKTLPEGVPSRFSGSGSGTDFTLTISSLQPEDFATYYCQHHYGTPPWTFGQGTRLEIKRADAAPTVSIFPPSSEQLTSGGASVVCFLNNFYPKDINVKWKIDGSERQNGVLNSWTDQDSKDSTYSMSSTLTLTKDEYERHNSYTCEATHKTSTSPIVKSFNRNEC
notes: as for B3
On to B6, for which the binding result in experiment [2] is “binds”.

B7: Format 33 (IgG1 CH3Δ6 hole / IgG4 CH3Δ6 knob mask + GGGS on MGA017 variable regions, hIgG1) (antibody)
heavy: not shown
light: GQPREPQVYTLPPCQEEMTKNQVSLWCLVKGFYPSDIAVEWESNGQPENNYKTTPPVLDSDGSFFLYSRLTVDKSRWQEGNVFSCSVMHEALHNHYTQKSLGGGSDIQMTQSPSSLSASVGDRVTITCRASESIYSYLAWYQQKPGKAPKLLVYNTKTLPEGVPSRFSGSGSGTDFTLTISSLQPEDFATYYCQHHYGTPPWTFGQGTRLEIKRTVAAPSVFIFPPSDEQLKSGTASVVCLLNNFYPREAKVQWKVDNALQSGNSQESVTEQDSKDSTYSLSSTLTLSKADYEKHKVYACEVTHQGLSSPVTKSFNRGEC
notes: as for B4
With B7, in experiment [3], the binding result is listed as “binds”.

B8: Format 31 (KIH CH3Δ6 mask + cleavable linker IPVSLRSGPLGLAG on MGA017 variable regions, mIgG1) (antibody)
heavy: GQPREPQVCTLPPSRDELTKNQVSLSCAVKGFYPSDIAVEWESNGQPENNYKTTPPVLDSDGSFFLVSKLTVDKSRWQQGNVFSCSVMHEALHNHYTQKSLIPVSLRSGPLGLAGEVQLVESGGGLVKPGGSLRLSCAASGFTFSSYGMSWVRQAPGKGLEWVATINSGGSNTYYPDSLKGRFTISRDNAKNSLYLQMNSLRAEDTAVYYCARHDGGAMDYWGQGTTVTVSSAKTTPPSVYPLAPGSAAQTNSMVTLGCLVKGYFPEPVTVTWNSGSLSSGVHTFPAVLQSDLYTLSSSVTVPSSTWPSETVTCNVAHPASSTKVDKKIVPRDCGCKPCICTVPEVSSVFIFPPKPKDVLTITLTPKVTCVVVDISKDDPEVQFSWFVDDVEVHTAQTQPREEQFNSTFRSVSELPIMHQDWLNGKEFKCRVNSAAFPAPIEKTISKTKGRPKAPQVYTIPPPKEQMAKDKVSLTCMITDFFPEDITVEWQWNGQPAENYKNTQPIMDTDGSYFVYSKLNVQKSNWEAGNTFTCSVLHEGLHNHHTEKSLSHSPGK
light: GQPREPQVYTLPPCRDELTKNQVSLWCLVKGFYPSDIAVEWESNGQPENNYKTTPPVLDSDGSFFLYSKLTVDKSRWQQGNVFSCSVMHEALHNHYTQKSLIPVSLRSGPLGLAGDIQMTQSPSSLSASVGDRVTITCRASESIYSYLAWYQQKPGKAPKLLVYNTKTLPEGVPSRFSGSGSGTDFTLTISSLQPEDFATYYCQHHYGTPPWTFGQGTRLEIKRADAAPTVSIFPPSSEQLTSGGASVVCFLNNFYPKDINVKWKIDGSERQNGVLNSWTDQDSKDSTYSMSSTLTLTKDEYERHNSYTCEATHKTSTSPIVKSFNRNEC
notes: as for B3
In the case of B8, the binding result in experiment [4] is reported as “binds”.

The values are drawn from patent publication US20240182541A1 (CONCEPT TO MEDICINE BIOTECH, published 2024).
